Data on 2 molecules can be found in publication doi:10.1101/2021.12.29.474488 (bioRxiv, 2021).

One may read the stoichiometry N as the number of molecules, sites or subunits per partner or assembly.

The target in data set [1] is MgtE T336C/L421C mutant lacking the N domain (T. thermophilus) (UniProt Q5SMG8). Kind of data set: cross-linking.
The data set “crystal structure” concerns the molecule itself. Nature of the data set: crystal structure.

On to “MgtE T336C/L421C mutant lacking the N domain (from UniProt Q5SMG8 130-450) (domain or fragment)”, for which the stoichiometry N in data set [1] turned out to be 2.

B1: MgtE transmembrane (TM) domain from Thermus thermophilus (domain or fragment, T. thermophilus, UniProt Q5SMG8 268-450, looked up)
chain: VPDLVYSEAGPVALWLARVRWLVILILTGMVTSSILQGFESVLEAVTALAFYVPVLLGTGGNTGNQSATLIIRALATRDLDLRDWRRVFLKEMGVGLLLGLTLSFLLVGKVYWDGHPLLLPVVGVSLVLIVFFANLVGAMLPFLLRRLGVDPALVSNPLVATLSDVTGLLIYLSVARLLLEAV
For the molecule B1, the binding result in the data set “crystal structure” is given as “binds”.
